By IC50 is commonly meant the point on the concentration scale where inhibition reaches its midpoint. A low value points to greater potency.

Experimental findings from US20170247475A1 (Boehringer Ingelheim, published 2017) are described below.

The target of one test is T1, mouse VEGFR2-huFc (mouse, UniProt P35918 20-762, limits assumed).
T1 construct: also called mVEGFR2-huFc; mVEGFR2-hFc
Nature of the test: mVEGF164/mVEGFR2-hFc competition AlphaScreen, unlabelled mVEGF164 as competitor. A general note: Bead proximity is the source of the signal in Alpha formats.

A further test deals with T2, human VEGFR1-Fc chimera (human, UniProt P17948 27-756).
T2 construct: bought (R&D Systems); also called hVEGFR1-Fc
Nature of the test: ELISA, coated KLH conjugated VEGF165.

T2 sequence (P17948 27-756, change not shown): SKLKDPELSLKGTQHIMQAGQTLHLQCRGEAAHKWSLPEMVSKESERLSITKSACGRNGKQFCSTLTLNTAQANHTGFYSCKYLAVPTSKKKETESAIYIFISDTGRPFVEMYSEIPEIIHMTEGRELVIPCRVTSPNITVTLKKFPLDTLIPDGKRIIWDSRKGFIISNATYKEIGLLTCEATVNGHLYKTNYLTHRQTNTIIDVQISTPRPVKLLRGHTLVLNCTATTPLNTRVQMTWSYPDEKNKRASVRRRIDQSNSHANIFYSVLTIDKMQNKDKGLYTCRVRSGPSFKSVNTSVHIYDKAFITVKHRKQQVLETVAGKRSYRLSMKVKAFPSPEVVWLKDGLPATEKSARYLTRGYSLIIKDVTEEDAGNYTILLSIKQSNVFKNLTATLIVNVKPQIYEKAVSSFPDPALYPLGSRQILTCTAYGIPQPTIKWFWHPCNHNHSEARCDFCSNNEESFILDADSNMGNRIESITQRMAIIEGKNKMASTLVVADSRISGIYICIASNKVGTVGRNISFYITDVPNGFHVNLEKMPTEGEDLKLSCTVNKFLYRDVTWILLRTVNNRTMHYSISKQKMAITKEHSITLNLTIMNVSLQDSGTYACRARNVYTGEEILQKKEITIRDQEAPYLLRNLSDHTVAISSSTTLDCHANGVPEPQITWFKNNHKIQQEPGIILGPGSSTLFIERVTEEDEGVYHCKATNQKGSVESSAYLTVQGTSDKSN
T1 sequence (P35918 20-762 limits assumed): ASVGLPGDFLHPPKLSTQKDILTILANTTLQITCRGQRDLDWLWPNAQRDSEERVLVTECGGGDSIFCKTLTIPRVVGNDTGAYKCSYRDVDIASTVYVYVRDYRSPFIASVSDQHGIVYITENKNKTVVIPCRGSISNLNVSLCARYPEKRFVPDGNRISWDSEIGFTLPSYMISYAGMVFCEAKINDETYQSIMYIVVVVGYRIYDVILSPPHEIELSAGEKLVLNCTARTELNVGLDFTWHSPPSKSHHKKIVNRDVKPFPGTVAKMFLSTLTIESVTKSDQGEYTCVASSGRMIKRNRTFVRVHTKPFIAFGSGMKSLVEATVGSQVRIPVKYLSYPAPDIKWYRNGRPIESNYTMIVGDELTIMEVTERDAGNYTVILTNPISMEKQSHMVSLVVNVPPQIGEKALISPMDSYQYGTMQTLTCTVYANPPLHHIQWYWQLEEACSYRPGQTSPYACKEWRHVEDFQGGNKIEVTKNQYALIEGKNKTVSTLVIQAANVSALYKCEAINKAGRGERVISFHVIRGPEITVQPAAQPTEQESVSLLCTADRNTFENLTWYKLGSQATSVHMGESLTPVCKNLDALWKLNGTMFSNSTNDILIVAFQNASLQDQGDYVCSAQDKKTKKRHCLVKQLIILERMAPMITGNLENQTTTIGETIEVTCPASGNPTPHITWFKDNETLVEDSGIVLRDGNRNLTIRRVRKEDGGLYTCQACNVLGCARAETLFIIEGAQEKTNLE

B1: recombinant mouse VEGF164 (ligand, UniProt Q00731-2 27-190, looked up)
chain: APTTEGEQKSHEVIKFMDVYQRSYCRPIETLVDIFQEYPDEIEYIFKPSCVPLMRCAGCCNDEALECVPTSESNITMQIMRIKPHQSQHIGEMSFLQHSRCECRPKKDRTKPENHCEPCSERRKHLFVQDPQTCKCSCKNTDSRCKARQLELNERTCRCDKPRR
notes: biotinylated in the mVEGFR2 AlphaScreen; also called rmVEGF164; mVEGF164
As to B1, in the test with mouse VEGFR2-huFc, the IC50 is 0.05 nM.

B2: KLH conjugated VEGF165 (ligand, human, UniProt P15692-4 27-191, looked up)
chain: APMAEGGGQNHHEVVKFMDVYQRSYCHPIETLVDIFQEYPDEIEYIFKPSCVPLMRCGGCCNDEGLECVPTEESNITMQIMRIKPHQGQHIGEMSFLQHNKCECRPKKDRARQENPCGPCSERRKHLFVQDPQTCKCSCKNTDSRCKARQLELNERTCRCDKPRR
modifications: conjugated to mariculture keyhole limpet hemocyanin (mcKLH) with EDC
notes: also called VEGF165-KLH
Regarding B2, the binding result with human VEGFR1-Fc chimera was “binds”.
